Measurements as given in patent US20160046944, “APTAMER TO IL-17 AND USE THEREOF” (THE UNIVERSITY OF TOKYO, published 2016).
Numbering of substitutions follows the chain as printed.

T1: IL-17 (Homo sapiens, UniProt Q16552 Q16552:24-155)
T1 sequence: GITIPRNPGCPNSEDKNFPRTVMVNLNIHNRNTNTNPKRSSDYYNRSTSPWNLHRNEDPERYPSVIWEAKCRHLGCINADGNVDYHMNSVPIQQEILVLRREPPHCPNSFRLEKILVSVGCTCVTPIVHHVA

T2: IL-17 (IL-17A) (Homo sapiens, UniProt Q16552 Q16552:24-155)
T2 sequence: T1 sequence

B1: aptamer No. 27 (mixed)
mixed: GGGUAGCCGGAGGAGTCAGTAAUCGGTACCC
modifications: 2'-OMe (M), 2'-F (F), PS (S) as marked; uppercase DNA [2'-OMe: 1,2,3,4,7,8,10,13,14,21,23,24,25,26,28,29,30,31; 2'-F: 17; PS: 6]
B2: aptamer No. 72 (mixed)
RNA: B1 mixed with T16U, T20U, T27U
modifications: 2'-OMe (M), 2'-F (F), PS (S) as marked; uppercase DNA [2'-OMe: 1-5,7,8,10,13,14,21-31; 2'-F: 11,16,17,18,20; PS: 6]
B3: aptamer No. 39 (mixed)
mixed: B1 mixed
modifications: 2'-OMe (M), 2'-F (F) as marked; uppercase DNA [2'-OMe: 1-4,7,8,10,13,14,22-26,28-31; 2'-F: 17]
B4: aptamer No. 66 (mixed)
mixed: B1 mixed with T27U
modifications: 2'-OMe (M), 2'-F (F), PS (S) as marked; uppercase DNA [2'-OMe: 1-5,7,8,10,13,14,21-31; 2'-F: 11,17,18; PS: 6,15,19]
B5: aptamer No. 73 (mixed)
RNA: B1 mixed with T16U, T20U, T27U
modifications: 2'-OMe (M), 2'-F (F), PS (S) as marked; uppercase DNA [2'-OMe: 1-5,7,8,10,13,14,21-31; 2'-F: 11,16,17,18,20; PS: 6,15,19]
B6: aptamer No. 82 (mixed)
mixed: B1 mixed with T27U
modifications: 2'-OMe (M), 2'-F (F), PS (S) as marked; uppercase DNA [2'-OMe: 1-5,7,8,10,11,13,14,21-31; 2'-F: 17,18; PS: 6,15,19; DNA: 9,16,20]
B7: aptamer No. 86 (mixed)
mixed: B1 mixed with A21G, T27U
modifications: 2'-OMe (M), 2'-F (F), PS (S) as marked; uppercase DNA [2'-OMe: 1-5,7,8,10,11,13,14,17,21-31; 2'-F: 18; PS: 6,15,19; DNA: 9,16,20]
B8: aptamer No. 85 (mixed)
RNA: B1 mixed with T16U, T20U, T27U
modifications: 2'-OMe (M), 2'-F (F), PS (S) as marked; uppercase DNA [2'-OMe: 1-5,7,8,10,11,13,14,21-26,28-31; 2'-F: 16,17,18,20,27; PS: 6,15,19; DNA: 9]
B9: aptamer No. 28 (mixed)
mixed: B1 mixed
modifications: 2'-OMe (M), 2'-F (F) as marked; uppercase DNA [2'-OMe: 1,2,3,4,7,8,10,13,14,23,24,25,26,28,29,30,31; 2'-F: 17]
B10: aptamer No. 53 (mixed)
mixed: B1 mixed with T27U
modifications: g(M)g(M)g(M)u(M)Ag(S)c(M)c(M)Gg(M)a(F)gg(M)a(M)gTc(F)a(F)g(S)Ta(M)a(M)u(M)c(M)g(M)g(M)u(F)a(M)CCC
B11: aptamer No. 75 (mixed)
mixed: B1 mixed with T27U
modifications: 2'-OMe (M), 2'-F (F) as marked; uppercase DNA [2'-OMe: 1-5,7,8,10,13,14,21-26,28-31; 2'-F: 11,17,18,27]
B12: aptamer No. 54 (mixed)
RNA: B1 mixed with T16U, T20U, T27U
modifications: 2'-OMe (M), 2'-F (F), PS (S) as marked; uppercase DNA (U = deoxyuridine) [2'-OMe: 1,2,3,4,7,8,10,13,14,21,22,23,24,25,26,28; 2'-F: 11,17,18,27; PS: 6; dU: 16,20]
B13: aptamer No. 69 (mixed)
RNA: B1 mixed with T16U, T20U, T27U
modifications: 2'-OMe (M), 2'-F (F), PS (S) as marked; uppercase DNA [2'-OMe: 1-5,7,8,10,13,14,21-26,28-31; 2'-F: 11,16,17,18,20,27; PS: 6]
B14: aptamer No. 91 (mixed)
mixed: B1 mixed with T27U
modifications: 2'-OMe (M), 2'-F (F), PS (S) as marked; uppercase DNA [2'-OMe: 1-5,7,8,10,11,13,14,17,23-31; 2'-F: 18; PS: 6,15,19; DNA: 9,16,20]
B15: aptamer No. 89 (mixed)
mixed: B1 mixed with T27U
modifications: 2'-OMe (M), 2'-F (F), PS (S) as marked; uppercase DNA [2'-OMe: 1-5,7,8,10,11,13,14,17,22-31; 2'-F: 18; PS: 6,15,19; DNA: 9,16,20]
B16: aptamer No. 63 (mixed)
mixed: B1 mixed with T27U
modifications: 2'-OMe (M), 2'-F (F), PS (S) as marked; uppercase DNA [2'-OMe: 1,2,3,4,5,7,8,10,13,14,21,22,23,24,25,26,28,29,30,31; 2'-F: 11,17,18,27; PS: 6,15,19]
B17: aptamer No. 31 (mixed)
mixed: B1 mixed
modifications: 2'-OMe (M), 2'-F (F), PS (S) as marked; uppercase DNA [2'-OMe: 1,2,3,4,7,8,10,13,14,23,24,25,26,29,30,31; 2'-F: 17; PS: 6]
B18: aptamer No. 76 (mixed)
RNA: B1 mixed with T16U, T20U, T27U
modifications: 2'-OMe (M), 2'-F (F) as marked; uppercase DNA [2'-OMe: 1-5,7,8,10,13,14,21-26,29-31; 2'-F: 11,16,17,18,20,27]
B19: aptamer No. 29 (mixed)
mixed: B1 mixed
modifications: 2'-OMe (M), 2'-F (F) as marked; uppercase DNA [2'-OMe: 1,2,3,4,7,8,10,13,14,21,22,23,24,25,26,28,29,30,31; 2'-F: 17]
B20: aptamer No. 64 (mixed)
mixed: B1 mixed with T27U
modifications: 2'-OMe (M), 2'-F (F), PS (S) as marked; uppercase DNA [2'-OMe: 1,2,3,4,5,7,8,10,13,14,17,21,22,23,24,25,26,28,29,30,31; 2'-F: 11,18,27; PS: 6,15,19]
B21: aptamer No. 49 (mixed)
mixed: B1 mixed with T27U
modifications: 2'-OMe (M), 2'-F (F) as marked; uppercase DNA; (PI) printed, likely (M) [2'-OMe: 1-4,7,8,10,14,23-26,28; 2'-F: 17,27; 13 printed (PI), likely 2'-OMe]
B22: aptamer No. 84 (mixed)
RNA: B1 mixed with T16U, T20U, T27U
modifications: 2'-OMe (M), 2'-F (F), PS (S) as marked; uppercase DNA [2'-OMe: 1-5,7,8,10,11,13,14,21-31; 2'-F: 16,17,18,20; PS: 6,15,19; DNA: 9]
B23: aptamer No. 65 (mixed)
mixed: B1 mixed with T27U
modifications: 2'-OMe (M), 2'-F (F), PS (S) as marked; uppercase DNA [2'-OMe: 1-5,7,8,10,13,14,21-31; 2'-F: 11,17,18; PS: 6]
B24: aptamer No. 32 (mixed)
mixed: B1 mixed
modifications: 2'-OMe (M), 2'-F (F) as marked; uppercase DNA [2'-OMe: 1,2,3,4,7,8,10,13,14,21,22,23,24,25,26; 2'-F: 17]

Experiments:
Conditions in all cases: chain copies: 2
IL-17 [1] = target: T1, IL-17; assay: SPR; IL-17R-Fc on chip
Protocol: Whether aptamers shown by aptamer Nos. 1-49 inhibit the binding of IL-17 and IL-17 receptor was evaluated by the surface plasmon resonance method.
For the measurement, BIAcore2000 manufactured by BIAcore was used. […] As an analyte, IL-17 (100 or 150 nM) and an aptamer (50 or 100 nM) shown by aptamer No. 1-49 were mixed, maintained for 15 min and after that the mixture was flown.

IL-17 [2] = target: T1, IL-17; assay: SPR; IL-17 150 nM, aptamer 12.5 or 50 nM
Protocol: Whether the synthesized aptamers inhibit the binding of IL-17 and IL-17 receptor was evaluated by the surface plasmon resonance method.
For the measurement, BIAcore T100 manufactured by GE Healthcare Bio Sciences was used. […] As an analyte, IL-17 (150 nM) and each aptamer (12.5 or 50 nM) shown by Table 3 were mixed, maintained for 15 min and after that the mixture was flown.

IL-17 (IL-17A) = target: T2, IL-17 (IL-17A); assay: cell_activity; IL-6 release, NIH3T3
Protocol: First, human IL-17 and the aptamer produced in Example 1-2 were pre-incubated at 37° C. for 30 min, and added to NIH3T3 cell (ATCC, CRL1658) together with mouse TNFα (2 ng/mL). Then, after incubation for 24 hr, the culture supernatant was collected, and the production amount of IL-6 was measured by ELISA method described below. The IL-17 inhibitory action of each aptamer was determined from the production amount of IL-6. For comparison with the aptamer of the present invention, a conventionally-known aptamer (aptamer No. 50) against IL-17 was used.
ELISA method for verifying IL-17 inhibitory action of aptamer: A microtiter plate for ELISA was coated with rat anti-mouse IL-6 antibody (BD Biosciences, 2 μg/mL; 100 μL/well) diluted with PBS, and incubated at 4° C. overnight. The next day, the microtiter plate was washed 3 times with PBS/0.05% Tween 20, and applied blocking with PBS/1% BSA (200 μL/well) at room temperature for 2 hr. Then, the plate was washed 3 times with PBS/0.05% Tween 20. Recombinant mouse IL-6 (BD Biosciences; 100 μL/well) serially diluted with PBS/1% BSA/0.05% Tween 20 or culture supernatants (100 μL/well) were added to the plate. After incubation at room temperature for 2 hr, the plate was washed 3 times with PBS/0.05% Tween 20. Then, 100 μL/well of biotin conjugated rat anti-mouse IL-6 antibody (BD Biosciences) was added to the plate at final dilution of 1/500, and the mixture was reacted at room temperature for 1 hr. After washing 3 times with PBS/0.05% Tween 20, 100 μL/well of alkaline phosphatase conjugated streptavidin was added at final dilution of 1/1000. After 30 min at room temperature, the plate was again washed 4 times with PBS/0.05% Tween 20, and a substrate (1-Step PNPP; Thermo Fisher Scientific Inc; 100 μL/well) was added. After 15 min, aqueous sodium hydroxide solution (2N: 50 μL/well) was added to stop the reaction, and the plate was read on a microtiter reader (Bio-Rad) by using a 405 nm filter.

Binder | binding signal (IL-17 [2]) | further results
B1 | – | binding signal (IL-17 [1]): 13.3 % IL-17/IL-17R binding remaining
B2 | 26.1 % IL-17/IL-17R binding remaining | –
B3 | – | binding signal (IL-17 [1]): 14.8 % IL-17/IL-17R binding remaining
B4 | 28.7 % IL-17/IL-17R binding remaining | –
B5 | 32 % IL-17/IL-17R binding remaining | –
B6 | 5.28 % IL-17/IL-17R binding remaining | –
B7 | 35.7 % IL-17/IL-17R binding remaining | –
B8 | 27.8 % IL-17/IL-17R binding remaining | –
B9 | – | binding signal (IL-17 [1]): 13.2 % IL-17/IL-17R binding remaining
B10 | – | IC50 (IL-17 (IL-17A)): 1.67 nM
B11 | 21.6 % IL-17/IL-17R binding remaining | –
B12 | 25.1 % IL-17/IL-17R binding remaining | –
B13 | 18.4 % IL-17/IL-17R binding remaining | –
B14 | 35.1 % IL-17/IL-17R binding remaining | –
B15 | 35.1 % IL-17/IL-17R binding remaining | –
B16 | 27.1 % IL-17/IL-17R binding remaining | –
B17 | – | binding signal (IL-17 [1]): 16.2 % IL-17/IL-17R binding remaining
B18 | 24.1 % IL-17/IL-17R binding remaining | –
B19 | – | binding signal (IL-17 [1]): 13.3 % IL-17/IL-17R binding remaining
B20 | 29.3 % IL-17/IL-17R binding remaining | –
B21 | – | binding signal (IL-17 [1]): 19 % IL-17/IL-17R binding remaining
B22 | 27.7 % IL-17/IL-17R binding remaining | –
B23 | 20.3 % IL-17/IL-17R binding remaining | –
B24 | – | binding signal (IL-17 [1]): 13.2 % IL-17/IL-17R binding remaining
